Tests used:
Assay type in all cases: physicochemical
[1] = FT-NIR trehalose crystallization after frozen storage (freeze rate and storage temperature studies)
Description: To prepare the samples for slow and normal freezing, two milliliter sample aliquots were dispensed into autoclaved 5 cc glass vials and sealed with 20 mm Lyo-Stoppers using aseptic technique in a ventilated biosafety hood with laminar air flow. Slow freezing was accomplished by placing sample vials in a lyophilizer on pre-cooled shelves and held between −1° C. and −3° C. for 24 hours.
(§1) Normal freezing was accomplished by placing sample vials in a freezer at −20° C. until samples were completely frozen. To control for supercooling, ice was nucleated by applying frozen CO2 to the side of each vial until ice formation.
(§2) Fast freezing was accomplished by quench cooling fifty microliter sample aliquots drop-wise into liquid nitrogen. The freezing endpoint was determined by the increased opacity and the sinking of the sphere from the surface into a stainless steel mesh collection basket. After freezing, one-milliliter aliquots of bulk drug substance frozen pellets were removed from the liquid nitrogen and transferred into sterile, pre-chilled 5 cc glass vials. The vials were then stored on frozen CO2, and sealed with 20 mm Lyo-Stoppers. The formulation screen samples were fast frozen in 96-well microplates using liquid nitrogen. Immediately after the microplates were frozen, the samples were nucleated by scratching the ice surface with a 24 gauge needles (BD, Franklin Lakes, N.J.).
Samples frozen at the three freeze rates (slow, normal, and fast) by the methods described were transferred to three freezer units with set points of −20° C., −14° C., and −8° C. with a range of ±2° C. for frozen storage. The freezer temperature was monitored using a Yokogawa temperature monitoring system (Yokogawa Meters and Instruments Corporation, Tokyo, Japan). Sample vials were pulled after 0, 1, 2, 3, 6, 9 and 12 months of isothermal, frozen storage and placed on the lab counter bench under ambient conditions (approximately 22° C.) and allowed to thaw prior to analysis.
Samples intended for trehalose crystallization determination were first freeze-dried using a LyoStar II lyophilizer unit controlled by LyoManager II software (FTS Systems, Stone Ridge, N.Y.). The frozen samples were placed on a pre-cooled shelf and held at −35° C. for 7 hours prior to primary drying. Primary drying was achieved under a system pressure of 150 μm Hg by linearly increasing the shelf temperature to 20° C. at a rate of 0.2° C./min, followed by a 40 hour hold at 20° C. Secondary drying was performed by linearly increasing shelf temperature to 30° C. at 0.2° C./min, followed by an 8 hour hold at 30° C. Thermocouples were placed in various sample vials to monitor temperature during freeze-drying. Following secondary drying, sample vials were stoppered while still under vacuum to prevent samples from hydrating prior to analysis. Low volume (300 microliter), formulation screen samples were lyophilized in 96-well glass plates (Zinsser, Germany) using the same lyophilization method.
The percent trehalose crystallization was determined using near infrared diffuse reflectance spectroscopy. Data collection, calibration, and analysis methods used in this study were adapted from previous work focused on characterizing the spectral differences between amorphous trehalose and crystalline trehalose polymorphs (Connolly, B., et al. (2010) Anal. Biochem. 399(1):48-57). Using these methods, sample NIR spectra were recorded from 10,000-4,000 cm^−1 using 32 averaged scans with 4 cm^−1 resolution on a Nicolet Antaris FT-Near IR Analyzer equipped with an integrating sphere module (Thermo Fisher Scientific, Waltham, Mass.). Percent trehalose crystallization was calculated using normalized peak intensity ratios of bands at 4306 cm^−1 and 4291 cm^−1 (Connolly, B., et al. (2010) Anal. Biochem. 399(1):48-57). Data analysis was conducted using a linear regression analysis with MATLAB (R2007a, The MathWorks, Natick, Massachussetts) (Connolly, B., et al. (2010) Anal. Biochem. 399(1):48-57). […]

[2] = Formulation composition study: FT-NIR percent trehalose crystallization; details: trehalose 34.2% (wt/v), fast frozen, 12 months at −20° C.
Description: as §2
The formulation screen sample microplates were stored at two temperatures (−20±2° C., and −40±2° C.). The freezer temperature was monitored using a Yokogawa temperature monitoring system (Yokogawa Meters and Instruments Corporation, Tokyo, Japan).
Sample microplates for SEC analysis were stored isothermally for up to 365 days. Following frozen storage, microplates were thawed on the lab counter bench under ambient conditions (approximately 22° C.) prior to analysis. Control (0 day) samples were thawed immediately following completion of the freezing process. […]
The percent trehalose crystallization was determined using near infrared diffuse reflectance spectroscopy. […] Using these methods, sample NIR spectra were recorded from 10,000-4,000 cm^−1 using 32 averaged scans with 4 cm^−1 resolution on a Nicolet Antaris FT-Near IR Analyzer equipped with an integrating sphere module (Thermo Fisher Scientific, Waltham, Mass.). Percent trehalose crystallization was calculated using normalized peak intensity ratios of bands at 4306 cm^−1 and 4291 cm^−1 (Connolly, B., et al. (2010) Anal. Biochem. 399(1):48-57). […] Low volume (300 microliter) formulation screen samples were lyophilized and then analyzed for percent trehalose crystallization using the same method.

[3] = Turbidity analysis and visual inspection for precipitates; details: fast freeze samples
Description: The turbidity of the samples was measured by recording the average absorbance from 340-360 nm in a quartz cuvette with 1-cm path length (Eckhardt, B. M., et al. (1991) Pharm. Res. 8:1360-4) on an HP8453 spectrophotometer using Chemstation software (Agilent Technologies, Santa Clara, Calif.). Sterile water for injection was used to blank the instrument prior to analyses. Turbidity analysis of formulation screen samples was performed on a UV transparent, Corning half area, 96-well microplate using Spectramax M2 instrument (Molecular Devices, Sunnyvale). The turbidity was measured against a Sterile Water for Injection blank and the turbidity value measured by recording the average of the absorbance from 340-360 nm.

[4] = Visual trehalose crystallization in frozen trehalose solutions with pH indicating dye; details: 2.0, 4.0 and 8.0% (wt/v) trehalose, 20 mM histidine-acetate pH 5.5; normal freeze rate, −20° C. for 6 days
Description: Additional solutions were prepared with 0.0, 2.0, 4.0, and 8.0% (wt/v) trehalose in 20 mM histidine-acetate, at pH 5.5, and Water for Injection. Fifty microliters of pHydrion (pH Range: 0-7) pH-indicator dye (Micro Essential Laboratory, NY) was dispensed into a 10 cc glass vial and allowed to evaporate. Approximately four milliliters of the various trehalose formulations were added to the vial and the dye was allowed to dissolve in the solution. Photographs of frozen trehalose solutions were obtained using an Olympus Stylus 770SW digital camera (Olympus America Inc., NJ) in supermacro mode.
as §1
It is of significant interest to understand if trehalose crystallization impacts protein stability at pharmaceutically relevant (≤10% wt/v) concentrations. To evaluate the impact of nominal trehalose concentration on excipient crystallization, solutions were prepared with 0.0, 2.0, 4.0 and 8.0% (wt/v) trehalose dihydrate in the presence of pH indicating dye to better visualize crystallization. The samples were frozen using the normal freeze rate and stored at −20° C. for 6 days.

[5] = Fast freeze, 12 months frozen storage at −8° C.
[6] = Fast freeze, 12 months frozen storage at −14° C.
[7] = Fast freeze, 12 months frozen storage at −20° C.
[8] = Normal freeze, 12 months frozen storage at −8° C.
[9] = Normal freeze, 12 months frozen storage at −14° C.
[10] = Normal freeze, 12 months frozen storage at −20° C.
[11] = Slow freeze, 12 months frozen storage at −8° C.
[12] = Slow freeze, 12 months frozen storage at −14° C.
[13] = Slow freeze, 12 months frozen storage at −20° C.

In the case of “Bevacizumab: recombinant humanized anti-VEGF IgG1 monoclonal antibody; 25 mg/mL in 5.4% trehalose, 51 mM sodium phosphate pH 6.2, 0.04% polysorbate 20”, the “trehalose crystallization by FT-NIR, fast freeze samples” value ([1]; 12 month samples, fast freeze) is reported as “measurable amounts of trehalose crystallization”, the “trehalose crystallization by FT-NIR, slow and normal freeze samples” value ([1]; 12 month samples, slow and normal freeze) is reported as “no measurable amounts of trehalose crystallization” and the “Amorphous Trehalose” value [1, 5] is reported as 3.8 % wt/v. The “Crystallized Trehalose” value [1, 5] was 1.6 % wt/v, the “Amorphous Trehalose” value [1, 6] was 2.9 % wt/v and the “Crystallized Trehalose” value [1, 6] was 2.5 % wt/v. The “Amorphous Trehalose” value [1, 7] was 3.0 % wt/v, the “Crystallized Trehalose” value [1, 7] was 2.5 % wt/v and the “Amorphous Trehalose” value [1, 8] was 5.2 % wt/v. For the same compound, the “Crystallized Trehalose” value [1, 8] was 0.3 % wt/v, the “Amorphous Trehalose” value [1, 9] was 5.1 % wt/v and the “Crystallized Trehalose” value [1, 9] was 0.3 % wt/v. For the same compound, the “Amorphous Trehalose” value [1, 10] was 5.1 % wt/v, the “Crystallized Trehalose” value [1, 10] was 0.3 % wt/v and the “Amorphous Trehalose” value [1, 11] was 5.2 % wt/v. For the same compound, the “Crystallized Trehalose” value [1, 11] was 0.2 % wt/v, the “Amorphous Trehalose” value [1, 12] was 5.2 % wt/v and the “Crystallized Trehalose” value [1, 12] was 0.3 % wt/v. The “Amorphous Trehalose” value [1, 13] was 5.1 % wt/v, the “Crystallized Trehalose” value [1, 13] was 0.3 % wt/v and the percent crystallized trehalose ([2]; [bevacizumab]=25 mg/mL) was 61%. For the same compound, the percent crystallized trehalose ([2]; [bevacizumab]=100 mg/mL) was 47% and the “precipitates by turbidity analysis and visual inspection” value [3] was “formation of precipitates”.
In the case of `OC[C@H]1O[C@H](O[C@H]2O[C@H](CO)[C@@H](O)[C@H](O)[C@H]2O)[C@H](O)[C@@H](O)[C@@H]1O` [trehalose], the “time at which trehalose crystallization reaches a plateau” value ([1]; frozen storage, data not shown) is reported as at most 2 weeks, the percent crystallized trehalose ([2]; [bevacizumab]=0 mg/mL) is reported as 86% and the “visual trehalose crystallization after induced nucleation” value [4] is reported as “visually observed”.
